Data on 1 protein can be found in PMC7243059 (ACS nano, 2019).

Values joined by “and” are separate entries in the source; they are usually repeats but may differ in a detail not shown here. Equal entries are not always repeated. Where two headings read alike, the source gives them in different places.

Data set [1] deals with the molecule itself. Nature of the data set: SAXS.
Data set [2] concerns the molecule itself. As to the kind of experiment: SAXS. The source holds these as a separate data set.

B1: Hepatitis B virus capsid protein assembly domain (cp149) dimer (domain or fragment)
chain: MDIDPYKEFGATVELLSFLPSDFFPSVRDLLDTAAALYRDALESPEHCSPHHTALRQAILCWGDLMTLATWVGTNLEDPASRDLVVSYVNTNVGLKFRQLLWFHISCLTFGRETVLEYLVSFGVWIRTPPAYRPPNAPILSTLPETTVV
For the protein B1, the “stoichiometry N” value in data set [1] was 2; in data set [2], 240 monomers and 180 monomers.

By stoichiometry N is commonly meant a count of units in the complex or per binding partner.
